Key:
GhWRKY91 [1] = target: T1, GhWRKY91 (Gossypium hirsutum (CCRI10), UniProt A0A068LD65 1-273); test: EMSA; LightShift Chemiluminescent EMSA Kit (Thermo Scientific); buffer, salt, pH and temperature not stated; settings: protein: recombinant; tags: N-terminal GST, removed by digestion after purification; label: biotin end label
GhWRKY91 [2] = target: T1, GhWRKY91; test: competition; excess unlabelled probe against labelled GhWRKY17 probe; LightShift Chemiluminescent EMSA Kit (Thermo Scientific); buffer, salt, pH and temperature not stated; settings: protein: recombinant; tags: N-terminal GST, removed by digestion after purification

T1 sequence (A0A068LD65 entry or part of it): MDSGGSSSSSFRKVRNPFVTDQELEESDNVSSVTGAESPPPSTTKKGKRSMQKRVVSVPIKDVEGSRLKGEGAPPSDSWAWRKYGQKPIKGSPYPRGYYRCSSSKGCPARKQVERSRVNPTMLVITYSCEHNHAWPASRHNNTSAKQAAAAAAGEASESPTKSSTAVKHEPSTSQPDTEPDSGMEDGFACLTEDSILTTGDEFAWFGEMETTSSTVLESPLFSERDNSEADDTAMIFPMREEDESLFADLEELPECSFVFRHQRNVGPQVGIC

Row | Binder | binding result (GhWRKY91 [1]) | binding result (GhWRKY91 [2])
1 | GhWRKY17 promoter W-box probe (dsDNA) DNA 1: AATTTCAAACGGCTAATCCCCACCTTTTGACCTTATCTCTTGTCAGTGACCCA DNA 2: TGGGTCACTGACAAGAGATAAGGTCAAAAGGTGGGGATTAGCCGTTTGAAATT | binds | 
2 | GhWRKY17 promoter W-box probe, unlabelled competitor (dsDNA) DNA 1: AATTTCAAACGGCTAATCCCCACCTTTTGACCTTATCTCTTGTCAGTGACCCA DNA 2: TGGGTCACTGACAAGAGATAAGGTCAAAAGGTGGGGATTAGCCGTTTGAAATT |  | binds
3 | GhWRKY27a promoter W-box probe (dsDNA) DNA 1: GCGACTTGGTCAGCAATTGGAGTTTTGACCTTACCTCACTCTTCAGTCCAC DNA 2: GTGGACTGAAGAGTGAGGTAAGGTCAAAACTCCAATTGCTGACCAAGTCGC | no binding | 
4 | GhWRKY68 promoter W-box probe (dsDNA) DNA 1: GCACTGTTCAATATCCGTACAAGTGGTTGACCTACAATTGCCCGTCGATCC DNA 2: GGATCGACGGGCAATTGTAGGTCAACCACTTGTACGGATATTGAACAGTGC | no binding | 
5 | GhAPX1 promoter W-box probe (dsDNA) DNA 1: TCCCCGACGTTCCGACAAGTTTTGACTATTTTATTTTCTTAAAATAAAAAGC DNA 2: GCTTTTTATTTTAAGAAAATAAAATAGTCAAAACTTGTCGGAACGTCGGGGA | no binding | 
